The chains are these.
T1: mouse MSR1 extracellular domain expressed with a N-terminal nonahistidine tag (His9-mMSR1); R&D Systems, Cat … (mouse, UniProt P30204 79-458)
T1 construct: extracellular domain; not shown: N-terminal nonahistidine tag
T1 sequence (looked up): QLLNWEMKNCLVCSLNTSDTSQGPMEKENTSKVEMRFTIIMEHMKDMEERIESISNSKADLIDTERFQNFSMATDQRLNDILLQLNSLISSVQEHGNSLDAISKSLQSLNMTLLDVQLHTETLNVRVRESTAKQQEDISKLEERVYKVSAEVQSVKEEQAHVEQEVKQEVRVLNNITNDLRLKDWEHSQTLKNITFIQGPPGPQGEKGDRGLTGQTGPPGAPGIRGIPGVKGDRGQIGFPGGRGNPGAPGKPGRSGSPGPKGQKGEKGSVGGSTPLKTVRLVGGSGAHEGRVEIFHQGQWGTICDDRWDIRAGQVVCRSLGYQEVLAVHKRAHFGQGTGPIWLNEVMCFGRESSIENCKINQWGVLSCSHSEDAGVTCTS

T2: human MSR1 extracellular domain expressed with a N-terminal nonahistidine tag (His9-hMSR1); R&D Systems, Cat … (human, UniProt P21757 77-451)
T2 construct: extracellular domain; also called His-hMSR1; 9xHis-hMSR1; not shown: N-terminal nonahistidine tag
T2 sequence (looked up): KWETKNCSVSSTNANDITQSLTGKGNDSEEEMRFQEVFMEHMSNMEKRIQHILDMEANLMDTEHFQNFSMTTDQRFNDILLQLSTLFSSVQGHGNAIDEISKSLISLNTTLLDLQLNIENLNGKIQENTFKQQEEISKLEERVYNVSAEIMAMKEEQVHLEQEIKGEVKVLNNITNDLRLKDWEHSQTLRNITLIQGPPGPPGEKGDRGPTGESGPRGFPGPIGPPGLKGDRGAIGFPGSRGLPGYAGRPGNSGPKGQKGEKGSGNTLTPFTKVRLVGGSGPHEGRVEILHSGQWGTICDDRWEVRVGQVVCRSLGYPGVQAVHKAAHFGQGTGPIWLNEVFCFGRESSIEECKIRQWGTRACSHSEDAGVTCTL

T3: monkey MSR1 extracellular domain expressed with a N-terminal hexahistidine-myc-myc tag (HMM-mfMSR1) (monkey (Macaca fascicularis))
T3 chain: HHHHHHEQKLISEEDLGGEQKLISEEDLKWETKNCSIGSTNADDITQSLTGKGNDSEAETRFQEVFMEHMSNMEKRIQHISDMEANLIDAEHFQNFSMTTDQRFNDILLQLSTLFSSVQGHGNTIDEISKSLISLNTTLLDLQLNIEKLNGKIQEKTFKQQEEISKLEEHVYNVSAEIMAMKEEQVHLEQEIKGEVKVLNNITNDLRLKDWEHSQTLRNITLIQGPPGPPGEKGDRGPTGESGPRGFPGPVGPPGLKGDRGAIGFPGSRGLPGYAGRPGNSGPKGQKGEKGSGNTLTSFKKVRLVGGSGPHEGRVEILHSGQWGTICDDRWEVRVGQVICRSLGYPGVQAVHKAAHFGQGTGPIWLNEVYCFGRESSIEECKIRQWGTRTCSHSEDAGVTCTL

T4: human MSR1 extracellular domain expressed with a N-terminal nonahistidine tag (His9-hMSR1); R&D Systems, Cat … (human, UniProt P21757 77-451)
T4 construct: extracellular domain; Bought reagent; also called His-hMSR1; 9xHis-hMSR1
T4 sequence: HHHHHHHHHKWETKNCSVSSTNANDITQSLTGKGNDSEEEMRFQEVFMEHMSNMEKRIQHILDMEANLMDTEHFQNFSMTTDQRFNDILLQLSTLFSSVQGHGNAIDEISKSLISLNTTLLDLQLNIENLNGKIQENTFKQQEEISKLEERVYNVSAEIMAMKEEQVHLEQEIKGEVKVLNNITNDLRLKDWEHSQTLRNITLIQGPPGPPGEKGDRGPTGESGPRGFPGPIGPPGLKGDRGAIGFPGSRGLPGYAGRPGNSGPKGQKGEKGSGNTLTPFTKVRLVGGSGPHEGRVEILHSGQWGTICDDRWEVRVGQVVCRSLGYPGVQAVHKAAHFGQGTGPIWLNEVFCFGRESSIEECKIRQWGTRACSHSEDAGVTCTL

B1: H2aM21232N (antibody, V domains shown)
VH: QVQLQESGPGLVKPSETLSLTCTVSGGSISSYYWSWIRQPPGKGLEWIGYIYYSGSANYNPSLKSRVTISVDTSKNQFSLKLSSVTAADTAVYYCVRDRDLLLDHWGQGTLVTVSS
VL: not shown
notes: Human variable domains with mouse IgG2a Fc
B2: H2aM25685N (antibody, V domains shown)
VH: QVQLVQSGAEVREPGASVKLSCKVSGYTLTELSIHWVRQAPGKGLEWMGGFDPEEGETVYAQKFRGRVTLTEDISPDTAYMELSSLTSEDTAVYYCATPRYCNNGICYDYWGQGTLITVSS
VL: not shown
notes: Human variable domains with mouse IgG2a Fc; tied by the numerical identifier
B3: H1H27751P-N297Q (antibody, V domains shown)
VH: EVQLVESGGGLVQPGGSLRLSCAASGFTFSNYAMHWVRQAPGKGLEYVSAISSNGGSTYYADSVKGRITISRDNSKNTLYLQMGSLRAEDMAVYYCARGRPYYYYFGMDVWGQGTTVTVSS
VL: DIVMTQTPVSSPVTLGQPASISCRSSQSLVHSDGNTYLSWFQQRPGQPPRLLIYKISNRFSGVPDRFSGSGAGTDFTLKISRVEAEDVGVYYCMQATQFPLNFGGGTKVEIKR
notes: Human IgG1 Fc with N297Q point mutation
B4: H1H27729P-N297Q (antibody, V domains shown)
VH: QVQLVESGGGLVKPGGSLRLSCAASGFIFSDYYMSWIRQAPGKGLEWVSYISSSGTTIYGDSVKGRFTMSRDNAKNSLYLQMNSLRAEDTAVYYCARNYALFDYWGQGTLVTVSS
VL: DIQMTQSPSSLSASVGDRVTITCQASQDISKYLNWYQQKPGKAPKLLIYYTSNLETGVPSRFSGSGSGTDFTFTISSLQPEDIATYYCHQSDYLPFTFGPGTKVDIKR
notes: as for B3
B5: H1H27747P-N297Q (antibody, V domains shown)
VH: QVQLVESGGAVVQPGRSLRLSCAASGFTFSYYGMHWVRQAPGKGLEWVAVISYDGSKKYYADSVKGRFTISRDNSKNTLYLQMNSLRAEDTAVYYCAKDLTVDFYYGMDVWGQGTTVTVSS
VL: DIQMTQSPSSVSASVGDRVTITCRASQGISSWLAWYQQKPGKAPKLLIYATSSLQSGAPSRFSGSGSGTDFTLTISSLQPEDFATYFCQQANSFPYTFGQGTKLEIKR
notes: as for B3
B6: H2aM25690N (antibody, V domains shown)
VH: EVQLLESGGGLVQPGGSLRLSCAASGFTFSNYAMTWVRQAPGTGLEWVSAISGRGSNTYYTDSVKGRFTISRDNSKNMLYLQMNSLRAEDTASYYCAKDRFTTVGNWFDPWGQGTLVTVSS
VL: DIQMTQSPSSLSASVGDRVTITCRASQSISSYLNWYQQKPGKAPKLLIYAASSLQNGVPSRFSGSGSGTDFTLTISSLQPEDFATYYCQQSYSSLPITFGQGTRLDIKR
notes: as for B2
B7: H1H21234N-N297Q-LP1 (antibody, human IgG1, V domains shown)
VH: QVQLQESGPGLVKPSETLSLTCTVTGGSISRNYWSWIRQPPGKGLEWIGYIYYSGSIDYNPSLKSRVTISVDTSKNQFSLKLSSMTAADTAVYYCARDRWNWKYGMDVWGQGTTVIVSS
VL: EIVLTQSPGTLSLSPGERATLSCRASQTVRNNYLAWYHQKPGQAPRLLIYGASSRATGIPDRFSGSGSGTDFTLTISRLEPEDFTVYYCHQYGNSPWTFGQGTKMEIKR
modifications: LXR agonist linker-payload LP1 clicked to azido-PEG3-amine on Q295 and Q297 (EU) of the heavy chain constant region
notes: antibody-drug conjugate; human IgG1 Fc with N297Q (EU); also called H1H21234N-LP1
B8: H1H27732P-N297Q-LP1 (antibody, human IgG1, V domains shown)
VH: QLQLQESGPGLVKPSETLSLTCTVSGGSISSSTYYWGWIRQPPGKGLEWIGSFYYSGSTYYNPSLKSRVTISVGTSKNQFSLKLSSVTAADTAVYFCARGGLLGRPFVIWGQGTMVTVSS
VL: DIQMTQSPSSLSASVGDRVTITCRASQGIRNDLGWYQQKPGKAPKRLIYAASSLQSGVPSRFSGSGSGTEFTLTISSLQPEDFATYYCLQHNSYPLTFGGGTKVEIKR
modifications: LXR agonist linker-payload LP1 clicked to azido-PEG3-amine on Q295 and Q297 (EU) of the heavy chain constant region
notes: antibody-drug conjugate; human IgG1 Fc with N297Q (EU); also called H1H27732P-LP1
B9: H1H27754P-N297Q (antibody, human IgG1, V domains shown)
VH: EVQLVESGGGLVQPGGSLRLSCAASGFTFRTYAMTWVRQAPGKGLDWVSAITGDGGNTYYADSVKGRFTISRDNSKNTLYLQMNSLRAEDTAIYYCAKDQRFSFALYYFDYWGQGTLVTVSS
VL: B5 VL with K42N, T51A, S52F, A58V, F87Y, S93N, Y96W, L104V
notes: human IgG1 Fc with N297Q (EU)
B10: H1H27754P-N297Q-LP1 (antibody, human IgG1, V domains shown)
VH: B9 VH
VL: B5 VL with K42N, T51A, S52F, A58V, F87Y, S93N, Y96W, L104V
modifications: LXR agonist linker-payload LP1 clicked to azido-PEG3-amine on Q295 and Q297 (EU) of the heavy chain constant region
notes: antibody-drug conjugate; human IgG1 Fc with N297Q (EU); also called H1H27754P-LP1
B11: H1H27766P-N297Q (antibody, human IgG1, V domains shown)
VH: EVQLVESGGGLVQPGGSLRLSCAASGFTFSSFAMSWVRQAPGKELEWVSSISGRGGSTYYADSVRGRFTISRDNSKITLYLQMNSLRAEDTAVYYCAKDIVFRYTSSAYWYFDLWGRGTLVTVSS
VL: not shown
notes: human IgG1 Fc with N297Q (EU); also called H1H27766P2-N297Q

Numbering of substitutions follows the chain as printed. Names may count otherwise.

The target in one test is T1, mouse MSR1 extracellular domain …. The experiment in a line: BLI Octet, 25 C, antibody captured. Background: Biolayer interferometry detects binding as a change in optical thickness at a sensor tip.
For B1, the binding result was “no binding (tested: 100 nM)”.
Take B2: the binding result is reported as “no binding (tested: 100 nM)”.
With B3, the binding result is recorded as “no binding (tested: 50 nM)”.
On to B4, for which the binding result was “no binding (tested: 50 nM)”.
For B5, the binding result is listed as “no binding (tested: 50 nM)”.
Turning to B6, the binding result was “no binding (tested: 100 nM)”.

In the next test the target is T2, human MSR1 extracellular domain …. Description: SPR Biacore, 25 C, antibody captured.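 Note: rates from 1:1 fit with mass transport limitation of real-time sensorgrams, HEPES-buffered saline with EDTA and Tween-20 at pH 7.4, KD and t½ derived from the kinetic rates.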 For orientation: In SPR one partner is held on a chip, and binding of the other changes the refractive index at the surface.
For orientation: Kd means the equilibrium constant for the complex coming apart. Usually koff stands for the first-order rate constant of dissociation. Broadly, the kon is a measure of how fast the partners come together. The term t½ denotes the time needed for the level to fall by half in the phase considered. B3 returned a Kd of 0.172 nM, a koff of 0.000305 s⁻¹, a kon of 1.78e+06 M⁻¹ s⁻¹ and a t½ of 38 min.
Molecule B4 returned a Kd of 5.45 nM, a koff of 0.00107 s⁻¹, a kon of 197000 M⁻¹ s⁻¹ and a t½ of 11 min.

The target of a further test is T3, monkey MSR1 extracellular domain …. Description: SPR Biacore, 25 C, antibody captured.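 Note: rates from 1:1 fit with mass transport limitation of real-time sensorgrams, HEPES-buffered saline with EDTA and Tween-20 at pH 7.4, KD and t½ derived from the kinetic rates.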
B3 registered a Kd of 1.01 nM, a koff of 0.000749 s⁻¹, a kon of 744000 M⁻¹ s⁻¹ and a t½ of 15 min.
On the same counts, the results for B4 are 7.9 nM, 0.00212 s⁻¹, 269000 M⁻¹ s⁻¹ and 5 min.
For the molecule B5, binding was put at a Kd of 3.78 nM, the koff worked out at 0.000874 s⁻¹, the kon was found to be 231000 M⁻¹ s⁻¹ and the t½ came out at 13 min.

In a further test the target is T2, human MSR1 extracellular domain …. Description: SPR Biacore, 37 C, antibody captured.
Take B4: the Kd was 8.53 nM, the koff was 0.00204 s⁻¹, the kon was 239000 M⁻¹ s⁻¹ and the t½ turned out to be 6 min.
B5 came in with a Kd of 5.37 nM, a koff of 0.00276 s⁻¹, a kon of 513000 M⁻¹ s⁻¹ and a t½ of 4 min.

The next test addresses T3, monkey MSR1 extracellular domain …. The experiment in a line: SPR Biacore, 37 C, antibody captured.
In turn, B3 yielded a Kd of 1.55 nM, a koff of 0.0018 s⁻¹, a kon of 1.17e+06 M⁻¹ s⁻¹ and a t½ of 6 min.
With B4, the Kd turned out to be 8.58 nM, the koff amounted to 0.00349 s⁻¹, the kon was 407000 M⁻¹ s⁻¹ and the t½ was determined as 3.3 min.
For the molecule B5, the Kd is 3.47 nM, the koff turned out to be 0.00228 s⁻¹, the kon came to 657000 M⁻¹ s⁻¹ and the t½ is 5 min.

For another test, the target named is T4, human MSR1 extracellular domain …. Description: SPR Biacore T200, 25 C, antibody captured by anti-human Fc, His9-hMSR1 injected.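 Note: running buffer HBS-ET pH 7.4, rates from sensorgrams fitted to a 1:1 model including mass transport limitation, KD and half-life derived from the kinetic constants.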
B7 showed an on-rate (kon) of 490000 M⁻¹ s⁻¹.
In turn, B8 came in with a kon of 150000 M⁻¹ s⁻¹.
As for B9, the kon was 200000 M⁻¹ s⁻¹.
B10 registered a kon of 177000 M⁻¹ s⁻¹.
Molecule B11 gave an on-rate constant (kon) of 172000 M⁻¹ s⁻¹.

The target is the same in a further test. Description: SPR Biacore T200, 25 C, antibody captured by anti-human Fc, His9-hMSR1 injected; no dissociation seen, kd fixed at 1.00E-05.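 Note: running buffer HBS-ET pH 7.4, rates from sensorgrams fitted to a 1:1 model including mass transport limitation, KD and half-life derived from the kinetic constants.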
Experimental: All binding studies were performed in 10 mM HEPES, 300 mM NaCl, 3 mM EDTA, and 0.05% v/v Surfactant Tween-20, pH 7.4 (HBS-ET) running buffer at 25° C.
The association rate (kₐ) and dissociation rate (kd) were determined by fitting the real-time binding sensorgrams to a 1:1 binding model with mass transport limitation using Scrubber 2.0c curve-fitting software. Binding dissociation equilibrium constant (KD) and dissociative half-life (t½) were calculated from the kinetic rates as:
As for B7, the Kd was ≤ 0.0204 nM, the koff is ≤ 1e-05 s⁻¹ and the t½ is ≥ 1160 min.
On the same counts, the results for B8 are ≤ 0.066 nM, ≤ 1e-05 s⁻¹ and ≥ 1160 min.
On to B9, for which the Kd is ≤ 0.0499 nM, the koff is ≤ 1e-05 s⁻¹ and the t½ is ≥ 1160 min.
For B10 the same measures were ≤ 0.0564 nM, ≤ 1e-05 s⁻¹ and ≥ 1160 min.
B11: the Kd is ≤ 0.0583 nM, the koff was ≤ 1e-05 s⁻¹ and the t½ is ≥ 1160 min.
